Experimental data: the DeepSol protein solubility set

Assay: soluble on expression in E. coli; label from the status in PepcDB or PDB records

| Sequence | soluble on expression in E. coli |
| --- | --- |
| MKSSLSLLLLTSALSNFALATEIKSGGETSTTKEGANAFSMPAANLPMAKRLDFSVGNSFFRNPWVPAPASTDARDGLGPLFNTNGCQNCHIKDGRGHPPEPNDTQAVSMLVRLSIPAVTEQQKAIYAVNGVVPEPTYGGQLQDFSLPDQKPEGRIHITYDEVVVTFADGTPVALRKPNLKILDLAYGEMHPDVQMSARVAPPMIGLGLLEAIPDATLLQWADPEDRDGDGISGRVNQVRDVRTGEMAIGRFGWKAGQPNIMQQNAAAFNGDLGLTSHLFPQENCTEKQTLCRDLPNGGSPEVSDNILDFVEFYAQHLAVPVRRNVQDPQVQLGEKLFAQAGCQSCHKTNVLTQELAERPALSKQRIQPYTDLLLHDMGEGLSDGRPEALASAREWRTAPLWGIGYTQEVNGHTYFLHDGRARNVLEAVLWHGGEAQASRDKVLQFDKAQREALVAFLNSL | not soluble |
| MDQEIKSLELNITQLSAITGAHRQTIASRLKGVKTSGGNGSNLKIYRLVDILTAMMTMPAVTGENDPNKMKPSDRRAWFQSEMTRIELEKEMRTLIPASEVLSVYAVMAKTVVKTLEILPDLLERDAALPPDALEMTQKIIDQLREDLASMTYQACADAINGDDDDNGDEGQEEEQE | not soluble |
| MSSLNKLAIDQLNLAGKRVLIRVDFNVPLKDGKITNNQRIAAAVPTIQHALSNGAKSVVLMSHLGRPDGRRQDKYTLKPVAEELKALLKKDVLFLDDCVGSEVEAACADPAPGSVILLENLRYHLEEEGKGVDASGAKVKADSAAVKKFRESLTKLGDIYVNDAFGTAHRAHSSMVGVEHSQRASGFLLKNELSYFSKALDNPARPFLAILGGAKVADKIQLIKNLLDKVNEMIIGGGMAYTFLKVAQGVKIGNSLYDEEGAKIVNELLEAAKAKGVQIHLPVDFVIADKFAEDATSKTVTAEEGVPDGHMGLDVGPESSKIFAAAIQRAKTIVWNGPAGVFEFDKFATGTKSLMDEVVKATAAGAITIIGGGDTATAAKKYNTEDKVSHVSTGGGASLELLEGKVLPGVDALSPAQ | soluble |
| MAHHHHHHMSALAKKMMEKYGWKEGEGLGKERSGIKSYVKVTRRDPHTATGLGHAADPAQGGSLASTHAVELDAIYGQLHKETRKRQRQSSKARVDQGDTSEDEVDNGGELSDVSSTNSGASSSSSADSKSEGKAAVAARAAVKRQRRAPSSSPSNSGNDGDDRTDSKRSKGEHIGDVTRMSDKELFQRCGGVRLGRAGRHRLFDGKLKRIQDSS | soluble |
| NNEIMPGKMKVKATKGEGDGGITSEGNALYNNEGGRAFMYAYVTTKPGMKYVKWEHDSGVVTVELEPPCRFVIDTPTGPQIKYLYFVKNLNNLRRGAVLGYIGATVRLQ | soluble |
| MNERHVLVVFPHPDDEAFGVSGTIAEHAQNGTPVTYACLTLGEMGRNMGVPPFANRETLPHIRKQELEEACRILGIHDLRLLGYRDKTVEFEDEEELADQIAAIVAETNPSLVITFYPGYSVHPDHDACGAAVIRALKRWPKEERPTVHCVAFAKNCEQDLGQPDVVRDVSSVIDTKLAAIRAHRSQTEGLMQAASKRGDALAWLKTERFWTYRWDD | soluble |
| MAHHHHHHMQDEAVRAALQSGVWREKKDPKSGKTYYVNVQTRVSVWNLAKELARLQQQQKFTEEMELRKQKKLRSLAEERQAQAKKWQEEEEALMQRMAELEREKARLESEITILQGPTEVEAASLQEEQSRLLDAKQSLELIVSEELRKRRESAAELQQLQARLEALRQERQEELGMFESLRKRLEQLRQEHAEALADLQREEAVEESLREELQREERQLEDALHEEVRLKELLKMREDEVDRMKAELKAVCQRKAELQQQHQRLLEEVAESAMGAAEDTLQEPPPSSSLLLSHLQREVANRKKSLRHLMQQQRLAKEAEWMEAESAELRRFTALAEREAQRLAQFSRELSDQVRAVTPLLEAVKHDVQQLEEEMEELR | soluble |
| MTRNPVVAGMFYPAEYHELLEMIEYCYLNPRGPRELPSKRGKYTKPLGIVSPHAGYIYSGPVAAHGYKKISENISGEITAIILGPNHTGLGSGIATMKGTWKTPFGDMEIDNEFADRLWKECDILDMDENSHLREHSIEVQLPFLKHLEDLNIAKFKFVPISMMMQDYESCIDVGYVIAKVARELNRKIVIIASTDFSHYEPQEQASKKDAVVIKDILELNDEEIFTDVVTHTISMCGYGPVIAMVKAMKDLGARTSYLLYYSTSGDVTKDYSEVVGYASLLIKLEHHHHHH | soluble |
| MGSDKIHHHHHHMFKRKVISFDIGSKNIKLVEGKCDGDKVIVTNMDMIETPKNSMNDGSIVDINLIAEAVRKLIDKVSTRTKNVVFTSQSTSIITRTVEIPWAKEKDMKSMIKYDIEQYLPIDLNEYIIKHKVIDEFQKEEVKMVRANVVVYPKKMAKAYWSLVEELELKPMALEVSLSAMEKILSSKDIITINEKDYQKEDTIAIVDIGSDEIEMNIIANGNLEFTRVLMGGGAYIDSSISNELSVDMDVAEEKKIIFGDLTLDNFSGEKQIVNEAMKNVIDRWNSEILRMLDYFKNKNKDKQIKKVYVHGGTSQIPGLCQYMKNSLGISVELIKNISTVSLDKKLEDKDITNYINAIGSIIM | not soluble |
| SLARKRRSTQRFSTTRKLKKERKIGTGKKEAEPLLPDLAEINAPDLMPTLVLNFDNVLASIAYDPVKGYIVRKRPGVDAFLSTLANFYELVLWSDHPFPFIEDLLRARLEWPISFTLYQENMDRRGSSRYRKIVQKGPFFKATRGVACSSGLSETAETLEEIFDNLERLGRRMDRVLYIDIDGSVLPSTQMRNFIKVTPFHGEAQEMLEDHALPELTDLLIGAAVSAGDVREMLLRYGGGADGNVGKR | soluble |
| MGSDKIHHHHHHMVEQLKPRYSSVWINKIAEVPQDAWDALALPLKTPFLEWDWLNNLETSHSATAKTGWLPNHLTLWRDRTLIAVAPLYIKGHSYGEFVFDHQWAELAERIGVQYYPKLLGMTPFTPAEGYRFLIADGEDEEEITAMMVHEIDSFCVKHNISSCHFLYVDPQWQPVLEKQGFTAWLHHSFIWENSGFQNFDDYLTVFNANQRRNIKRERKAVEKAGLQLQAVTGDAIPKSLFPLMYQFYADTCDKFGWWGSKYLTKQFFEQLHHNYRHRVVFFPAYHEQDPRQPLGMSFCLFKDDRLYGRYWGSFQEIDCLHFDACYYAPIEWAIANGIQSFDPGAGGRHKKRRGFPAAPNYSLHRFYNSRLGQILRPYINEVNQLEEQEIAAINAELPFSQK | not soluble |
| MRYFIVAGEASGDLHASNLVRALKEHDPEAVFAFMGGDFLSEATGERPIFHYREVAFMGFIPVLTHLGVIRRAGEHVQEQMRAFNPDVVIAVDYPGFNMRYVLPFVREELGKPIVYYISPKVWAWKSWRIKTLKKYVDLMLCILPFEKDFFAGHDFPVIYVGNPCYDAVKQHMRPTIEEQERSAKDSRQVALLCGSRLLEVKENLPVMLRVMKQFPDYRPVIAGAPGLTIQDYTPFLPDDSIPVVFGRTYEILRESKAALVTSGTATLETALIGTPQVVCYYIRGGRLTNLIFKYCFGTPFISLTNLIAGRAVVPELFGALFTEKRLAASLSPLLDASSAERQAQLSGYDSIRKSIGTDNTSDKAARHIIARFAKDNARPSSL | not soluble |
| MFQPQDDQDACYDNSIHYTDSLLGQVFELLKDRRASVMYFADHGLERDPTKKNVYFHGGREASQQAYHVPMFIWYSPVLGDGVDRTTENNIFSTAYNNYLINAWMGVTKPEQPQTLEEVIAHYKGDSRVVDANHDVFDYVMLRKEFTEDKQGNPTPEGQG | not soluble |
| MGSDKIHHHHHHMTAYNNNAIYFKNIASGSKGNSTFIWDAHDLIVIDFGITMKKFKEAISELTLGGLNKSIFISHEHADHVSGIRSVKKVDGADVYTRPATAEAANIKAYEIDNEVVIGNFEILAFDVPHDAADPVAFTVKWKDLKISVVSDLGTVTENVISNIRDSDILAFESNHDVSMLKTGRYPASLKRRILSQHGHLSNEQSAEAISKAINESTEIVLTHLSQENNKPEIALNEVKSYLKNRDIKYKDVECADQYVGSSLKSLKT | not soluble |
| MGSDKIHHHHHHMVVTEYELKPQNFPRFPLDWSEIFGRKAKIVVEIGFGNGEFLAELARRHPEKDFVGFEVSITSFVKAQKKFKRYNLKNVRLVKVDARFGLRELFPDNSVEKVYINFPCPWPKKRHESRRITSYDFLQTLSAVLEMDGTVEFATDEEWYAREVLDTFESSEYFVVDVFEENFKRDVETRYERKWKSQGKKTFLIVARKVKNGTVKRLMEGENTMAHSVFEGNVTWEKLKELEGKVFKDKNKIFVVKKVYRDGDYLLKVISTDEGGFQQVYYLNLSGRDGKWVLKLDEGSDPYRTPALKWSLRRIPEELTAQGSP | not soluble |
